In patent publication US20240209076A1 (KODIAK SCIENCES, published 2024) one finds Kd, koff and kon data, which are given here for six molecules.

For experiment [1], the target named is T1, recombinant human IL-6 (human, UniProt P05231 30-212).
T1 construct: Bought protein
Nature of the experiment: SPR Biacore, purified dual inhibitor on Protein A chip, IL-6 analyte, 37 C.

Experiment [2] has as its target T1, recombinant human IL-6. The experiment can be described thus: SPR Biacore, supernatant dual inhibitor on Protein A chip, IL-6 analyte, 25 C.

T1 sequence (P05231 30-212 limits assumed): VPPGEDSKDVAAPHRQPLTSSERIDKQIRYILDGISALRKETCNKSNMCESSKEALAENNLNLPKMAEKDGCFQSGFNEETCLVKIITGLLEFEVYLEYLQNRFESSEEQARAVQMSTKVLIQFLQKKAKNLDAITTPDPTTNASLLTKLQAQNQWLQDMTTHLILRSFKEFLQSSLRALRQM

B1: dual inhibitor molecule A (VEGF Trap-AntiIL-6) (other)
heavy: SDTGRPFVEMYSEIPEIIHMTEGRELVIPCRVTSPNITVTLKKFPLDTLIPDGKRIIWDSRKGFIISNATYKEIGLLTCEATVNGHLYKTNYLTHRQTNTIIDVVLSPSHGIELSVGEKLVLNCTARTELNVGIDFNWEYPSSKHQHKKLVNRDLKTQSGSEMKKFLSTLTIDGVTRSDQGLYTCAASSGLMTKKNSTFVRVHEKGGGGSGGGGSEVQLVESGGGLVQPGGSLRLSCAASGFTFSPFAISWVRQAPGKGLEWVAKISPGGSWTYYSDTVTDRFTFSLDTSKSTAYLQMNSLRAEDTAVYYCARQLWGYYALDVWGQGTLVTVSSASTKGPSVFPLAPSSKSTSGGTAALGCLVKDYFPEPVTVSWNSGALTSGVHTFPAVLQSSGLYSLSSVVTVPSSSLGTQTYICNVNHKPSNTKVDKKVEPKSCDKTHTCPPCPAPEAAGAPSVFLFPPKPKDTLMISRTPEVTCVVVDVSHEDPEVKFNWYVDGVEVHNAKTKPREEQYNSTYRVVSVLTVLHQDWLNGKEYKCKVSNKALPAPIEKTISKAKGQPREPQVYTLPPSREEMTKNQVSLTCLVKGFYPSDIAVEWESNGQPENNYKTTPPVLDSDGSFFLYSKLTVDKSRWQQGNVFSCSVMHEALHNHYTQKSLSCSPGK
light: DIQLTQSPSSLSASVGDRVTITCSASISVSYLYWYQQKPGKAPKLLIYDDSSLASGVPSRFSGSGSGTDFTLTISSLQPEDFATYYCQQWSGYPYTFGQGTKVEIKRTVAAPSVFIFPPSDEQLKSGTASVVCLLNNFYPREAKVQWKVDNALQSGNSQESVTEQDSKDSTYSLSSTLTLSKADYEKHKVYACEVTHQGLSSPVTKSFNRGEC
Regarding B1, in the experiment with recombinant human IL-6 [1], the Kd was 0.484 nM, the koff was 0.000538 s⁻¹ and the kon stood at 1.11e+06 M⁻¹ s⁻¹. Moreover, in the experiment with recombinant human IL-6 [2], the Kd turned out to be 0.589 nM, the koff amounted to 0.000182 s⁻¹ and the on-rate (kon) came to 309000 M⁻¹ s⁻¹.

B2: dual inhibitor molecule D (VEGF Trap-AntiIL-6) (other)
heavy: SDTGRPFVEMYSEIPEIIHMTEGRELVIPCRVTSPNITVTLKKFPLDTLIPDGKRIIWDSRKGFIISNATYKEIGLLTCEATVNGHLYKTNYLTHRQTNTIIDVVLSPSHGIELSVGEKLVLNCTARTELNVGIDFNWEYPSSKHQHKKLVNRDLKTQSGSEMKKFLSTLTIDGVTRSDQGLYTCAASSGLMTKKNSTFVRVHEKGGGGSGGGGSEVQLVESGGGLVQPGGSLRLSCAASGFTFSPFAWSWVRQAPGKGLEWVAKISPGGSWTYYSDTVTDRFTFSLDTSKSTAYLQMNSLRAEDTAVYYCARQLWGYYALDVWGQGTLVTVSSASTKGPSVFPLAPSSKSTSGGTAALGCLVKDYFPEPVTVSWNSGALTSGVHTFPAVLQSSGLYSLSSVVTVPSSSLGTQTYICNVNHKPSNTKVDKKVEPKSCDKTHTCPPCPAPEAAGAPSVFLFPPKPKDTLMISRTPEVTCVVVDVSHEDPEVKFNWYVDGVEVHNAKTKPREEQYNSTYRVVSVLTVLHQDWLNGKEYKCKVSNKALPAPIEKTISKAKGQPREPQVYTLPPSREEMTKNQVSLTCLVKGFYPSDIAVEWESNGQPENNYKTTPPVLDSDGSFFLYSKLTVDKSRWQQGNVFSCSVMHEALHNHYTQKSLSCSPGK
light: DIQLTQSPSSLSASVGDRVTITCSASISVSYLYWYQQKPGKAPKLLIYDDSSLASGVPSRFSGSGSGTDFTLTISSLQPEDFATYYCQQWSGYPYTFGQGTKVEIKRTVAAPSVFIFPPSDEQLKSGTASVVCLLNNFYPREAKVQWKVDNALQSGNSQESVTEQDSKDSTYSLSSTLTLSKADYEKHKVYACEVTHQGLSSPVTKSFNRGEC
notes: Trap-antibody fusion, VEGF trap at the N-terminus of the anti-IL-6 heavy chain (VH variant II); light chain variant III
B2: in the experiment with recombinant human IL-6 [1], the Kd amounted to 0.365 nM, the koff was 0.000447 s⁻¹ and the kon worked out at 1.23e+06 M⁻¹ s⁻¹. For the same molecule, in the experiment with recombinant human IL-6 [2], the Kd was 0.253 nM, the koff came to 0.000109 s⁻¹ and the kon came to 433000 M⁻¹ s⁻¹.

B3: dual inhibitor molecule F (VEGF Trap-AntiIL-6) (other)
heavy: SDTGRPFVEMYSEIPEIIHMTEGRELVIPCRVTSPNITVTLKKFPLDTLIPDGKRIIWDSRKGFIISNATYKEIGLLTCEATVNGHLYKTNYLTHRQTNTIIDVVLSPSHGIELSVGEKLVLNCTARTELNVGIDFNWEYPSSKHQHKKLVNRDLKTQSGSEMKKFLSTLTIDGVTRSDQGLYTCAASSGLMTKKNSTFVRVHEKGGGGSGGGGSEVQLVESGGGLVQPGGSLRLSCAASGFTFSPFAWSWVRQAPGKGLEWVAKISPGGSWTYYSDTVTDRFTFSLDTSKSTAYLQMNSLRAEDTAVYYCARQLWGYYALDVWGQGTLVTVSSASTKGPSVFPLAPSSKSTSGGTAALGCLVKDYFPEPVTVSWNSGALTSGVHTFPAVLQSSGLYSLSSVVTVPSSSLGTQTYICNVNHKPSNTKVDKKVEPKSCDKTHTCPPCPAPEAAGAPSVFLFPPKPKDTLMISRTPEVTCVVVDVSHEDPEVKFNWYVDGVEVHNAKTKPREEQYNSTYRVVSVLTVLHQDWLNGKEYKCKVSNKALPAPIEKTISKAKGQPREPQVYTLPPSREEMTKNQVSLTCLVKGFYPSDIAVEWESNGQPENNYKTTPPVLDSDGSFFLYSKLTVDKSRWQQGNVFSCSVMHEALHNHYTQKSLSCSPGK
light: DIQLTQSPSSLSASVGDRVTITCSASISVSYLYWYQQKPGKAPKLLIYDDSNLASGVPSRFSGSGSGTDFTLTISSLQPEDFATYYCQQWSGYPYTFGQGTKVEIKRTVAAPSVFIFPPSDEQLKSGTASVVCLLNNFYPREAKVQWKVDNALQSGNSQESVTEQDSKDSTYSLSSTLTLSKADYEKHKVYACEVTHQGLSSPVTKSFNRGEC
notes: Trap-antibody fusion, VEGF trap at the N-terminus of the anti-IL-6 heavy chain (VH variant II); light chain variant V
Take B3: in the experiment with recombinant human IL-6 [1], the Kd amounted to 0.34 nM, the koff came out at 0.000446 s⁻¹ and the kon was found to be 1.31e+06 M⁻¹ s⁻¹. Besides, in the experiment with recombinant human IL-6 [2], the Kd is 0.225 nM, the koff amounted to 0.000137 s⁻¹ and the kon was 611000 M⁻¹ s⁻¹.

B4: dual inhibitor molecule E (VEGF Trap-AntiIL-6) (other)
heavy: SDTGRPFVEMYSEIPEIIHMTEGRELVIPCRVTSPNITVTLKKFPLDTLIPDGKRIIWDSRKGFIISNATYKEIGLLTCEATVNGHLYKTNYLTHRQTNTIIDVVLSPSHGIELSVGEKLVLNCTARTELNVGIDFNWEYPSSKHQHKKLVNRDLKTQSGSEMKKFLSTLTIDGVTRSDQGLYTCAASSGLMTKKNSTFVRVHEKGGGGSGGGGSEVQLVESGGGLVQPGGSLRLSCAASGFTFSPFAWSWVRQAPGKGLEWVAKISPGGSWTYYSDTVTDRFTFSLDTSKSTAYLQMNSLRAEDTAVYYCARQLWGYYALDVWGQGTLVTVSSASTKGPSVFPLAPSSKSTSGGTAALGCLVKDYFPEPVTVSWNSGALTSGVHTFPAVLQSSGLYSLSSVVTVPSSSLGTQTYICNVNHKPSNTKVDKKVEPKSCDKTHTCPPCPAPEAAGAPSVFLFPPKPKDTLMISRTPEVTCVVVDVSHEDPEVKFNWYVDGVEVHNAKTKPREEQYNSTYRVVSVLTVLHQDWLNGKEYKCKVSNKALPAPIEKTISKAKGQPREPQVYTLPPSREEMTKNQVSLTCLVKGFYPSDIAVEWESNGQPENNYKTTPPVLDSDGSFFLYSKLTVDKSRWQQGNVFSCSVMHEALHNHYTQKSLSCSPGK
light: DIQLTQSPSSLSASVGDRVTITCSASISVSYLYWYQQKPGKAPKLLIYDASSLASGVPSRFSGSGSGTDFTLTISSLQPEDFATYYCQQWSGYPYTFGQGTKVEIKRTVAAPSVFIFPPSDEQLKSGTASVVCLLNNFYPREAKVQWKVDNALQSGNSQESVTEQDSKDSTYSLSSTLTLSKADYEKHKVYACEVTHQGLSSPVTKSFNRGEC
notes: Trap-antibody fusion, VEGF trap at the N-terminus of the anti-IL-6 heavy chain (VH variant II); light chain variant IV
As for B4, in the experiment with recombinant human IL-6 [1], the Kd was 0.424 nM, the koff worked out at 0.000459 s⁻¹ and the kon worked out at 1.08e+06 M⁻¹ s⁻¹. Also, in the experiment with recombinant human IL-6 [2], the Kd stood at 0.299 nM, the dissociation rate constant (koff) worked out at 0.000151 s⁻¹ and the kon was 504000 M⁻¹ s⁻¹.

B5: dual inhibitor molecule C (VEGF Trap-AntiIL-6) (other)
heavy: SDTGRPFVEMYSEIPEIIHMTEGRELVIPCRVTSPNITVTLKKFPLDTLIPDGKRIIWDSRKGFIISNATYKEIGLLTCEATVNGHLYKTNYLTHRQTNTIIDVVLSPSHGIELSVGEKLVLNCTARTELNVGIDFNWEYPSSKHQHKKLVNRDLKTQSGSEMKKFLSTLTIDGVTRSDQGLYTCAASSGLMTKKNSTFVRVHEKGGGGSGGGGSEVQLVESGGGLVQPGGSLRLSCAASGFTFSPFAISWVRQAPGKGLEWVAKISPGGSWTYYSDTVTDRFTFSLDTSKSTAYLQMNSLRAEDTAVYYCARQLWGYYALDVWGQGTLVTVSSASTKGPSVFPLAPSSKSTSGGTAALGCLVKDYFPEPVTVSWNSGALTSGVHTFPAVLQSSGLYSLSSVVTVPSSSLGTQTYICNVNHKPSNTKVDKKVEPKSCDKTHTCPPCPAPEAAGAPSVFLFPPKPKDTLMISRTPEVTCVVVDVSHEDPEVKFNWYVDGVEVHNAKTKPREEQYNSTYRVVSVLTVLHQDWLNGKEYKCKVSNKALPAPIEKTISKAKGQPREPQVYTLPPSREEMTKNQVSLTCLVKGFYPSDIAVEWESNGQPENNYKTTPPVLDSDGSFFLYSKLTVDKSRWQQGNVFSCSVMHEALHNHYTQKSLSCSPGK
light: DIQLTQSPSSLSASVGDRVTITCSASISVSYLYWYQQKPGKAPKLLIYDDSNLASGVPSRFSGSGSGTDFTLTISSLQPEDFATYYCQQWSGYPYTFGQGTKVEIKRTVAAPSVFIFPPSDEQLKSGTASVVCLLNNFYPREAKVQWKVDNALQSGNSQESVTEQDSKDSTYSLSSTLTLSKADYEKHKVYACEVTHQGLSSPVTKSFNRGEC
notes: Trap-antibody fusion, VEGF trap at the N-terminus of the anti-IL-6 heavy chain (VH variant I); light chain variant V
With B5, in the experiment with recombinant human IL-6 [1], the Kd stood at 0.477 nM, the koff stood at 0.000481 s⁻¹ and the kon was determined as 1.01e+06 M⁻¹ s⁻¹. Moreover, in the experiment with recombinant human IL-6 [2], the Kd is 0.394 nM, the koff came to 0.00015 s⁻¹ and the kon came to 379000 M⁻¹ s⁻¹.

B6: dual inhibitor molecule B (VEGF Trap-AntiIL-6) (other)
heavy: SDTGRPFVEMYSEIPEIIHMTEGRELVIPCRVTSPNITVTLKKFPLDTLIPDGKRIIWDSRKGFIISNATYKEIGLLTCEATVNGHLYKTNYLTHRQTNTIIDVVLSPSHGIELSVGEKLVLNCTARTELNVGIDFNWEYPSSKHQHKKLVNRDLKTQSGSEMKKFLSTLTIDGVTRSDQGLYTCAASSGLMTKKNSTFVRVHEKGGGGSGGGGSEVQLVESGGGLVQPGGSLRLSCAASGFTFSPFAISWVRQAPGKGLEWVAKISPGGSWTYYSDTVTDRFTFSLDTSKSTAYLQMNSLRAEDTAVYYCARQLWGYYALDVWGQGTLVTVSSASTKGPSVFPLAPSSKSTSGGTAALGCLVKDYFPEPVTVSWNSGALTSGVHTFPAVLQSSGLYSLSSVVTVPSSSLGTQTYICNVNHKPSNTKVDKKVEPKSCDKTHTCPPCPAPEAAGAPSVFLFPPKPKDTLMISRTPEVTCVVVDVSHEDPEVKFNWYVDGVEVHNAKTKPREEQYNSTYRVVSVLTVLHQDWLNGKEYKCKVSNKALPAPIEKTISKAKGQPREPQVYTLPPSREEMTKNQVSLTCLVKGFYPSDIAVEWESNGQPENNYKTTPPVLDSDGSFFLYSKLTVDKSRWQQGNVFSCSVMHEALHNHYTQKSLSCSPGK
light: DIQLTQSPSSLSASVGDRVTITCSASISVSYLYWYQQKPGKAPKLLIYDASSLASGVPSRFSGSGSGTDFTLTISSLQPEDFATYYCQQWSGYPYTFGQGTKVEIKRTVAAPSVFIFPPSDEQLKSGTASVVCLLNNFYPREAKVQWKVDNALQSGNSQESVTEQDSKDSTYSLSSTLTLSKADYEKHKVYACEVTHQGLSSPVTKSFNRGEC
notes: Trap-antibody fusion, VEGF trap at the N-terminus of the anti-IL-6 heavy chain (VH variant I); light chain variant IV
Regarding B6, in the experiment with recombinant human IL-6 [1], the Kd turned out to be 0.507 nM, the koff amounted to 0.000536 s⁻¹ and the kon was 1.06e+06 M⁻¹ s⁻¹. Moreover, in the experiment with recombinant human IL-6 [2], the Kd is 0.305 nM, the off-rate constant (koff) is 0.000185 s⁻¹ and the kon was determined as 605000 M⁻¹ s⁻¹.
